In PMC11609053:

Tests used:
[1] = target: T1, SCAB_Lrp2 (Streptomyces scabies 87.22) (UniProt C9Z7M0); assay: EMSA; conditions: 20 uL: 50 ng biotin-labelled probe, 0-400 nM protein, 2 uL binding buffer (Liu et al. 2023; composition, pH and temperature not given), chemiluminescent …
T1 sequence: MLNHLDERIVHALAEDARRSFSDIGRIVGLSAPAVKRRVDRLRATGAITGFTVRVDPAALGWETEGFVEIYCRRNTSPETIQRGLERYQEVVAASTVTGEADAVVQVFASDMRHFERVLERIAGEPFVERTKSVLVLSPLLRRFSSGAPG

[2] = target: T2, SCAB_Lrp (Streptomyces scabies 87.22?) (UniProt C9ZB67); assay: EMSA; conditions: 20 uL: 50 ng biotin-labelled probe, 0-400 nM protein, 2 uL binding buffer (Liu et al. 2023; composition, pH and temperature not given), chemiluminescent …
T2 sequence: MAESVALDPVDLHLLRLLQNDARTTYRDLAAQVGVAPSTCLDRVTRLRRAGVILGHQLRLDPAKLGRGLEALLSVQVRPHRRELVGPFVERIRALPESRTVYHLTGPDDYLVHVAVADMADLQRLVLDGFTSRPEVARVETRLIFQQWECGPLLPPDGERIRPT

With “AAGGCAGTACCTTGCGCTCGGCGCGTCGGCCGGAAATCGAGTGAAGCAAGATGCTTCCCCCTTCTCGGCTCCGAGCGCGACAAACAGTTCAGAACAGGCCACGGCGAGATCCTCCGCAAGGAACGAACCCAGTCGTTCACCCGCTTAGTTTGATTGAAATTTCAACTACCAGGTCAATCG (double strand) [PtxtR]” the binding [1] was “binds”.

With “GTCGTCTTCGGCGTCTGGATGGCCGCCGGGCTCGTGTTCTACTTCAGTTACGGCCACCGGCGCTCGCGTCTGGCTGCGGCCCCGGCCCCCGCCGACCCCACGTCCCCGCCGGCTCCCCCGTCCACGTCCCCGTCGACTCCAGAGAAGTGATCCACCCGCAGTGCTGAACCATCTCGACGA (double strand) [P75421]” the binding [2] was “binds” and the binding [1] was “binds”.
